Test results as given in the RNAGym collection of RNA variant scans (doi:10.7554/elife.80360).

B1: Hairpin Ribozyme (parent)
chain: GUCCUCUUUCACGUGCGCGUGAAAGAGAGAAGUGAACCAGAGAAACACACGUUGUGGUAUAUUACCUGGUA

Variants of: B1
Assay: self-cleavage, relative activity (ratio to wild type); higher = more cleavage; co-transcriptional

Going from U2A C3U to U2A C4U, the self-cleavage falls from 0.288 to 0.0895.

Compared with U2A C12A, U2A C12G is higher in self-cleavage: 0.171 for the first, 0.175 for the second.

First: U2A C12U
Second: U2A C18A
The self-cleavage of the first is lower: 0.166 for the first, 0.23 for the second.

First: U2A C37G
Second: U2A C38A
The self-cleavage of the first is higher: 0.123 for the first, 0.115 for the second.

Going from U2A C38G to U2A C46U, the self-cleavage falls from 0.121 to 0.0639.

Compared with U2A C48A, U2A C50U is lower in self-cleavage: 0.159 for the first, 0.113 for the second.

Going from U2A C65U to U2A C66A, the self-cleavage falls from 0.128 to 0.124.

Compared with U2A G13A, U2A G13C is lower in self-cleavage: 0.26 for the first, 0.158 for the second.

Going from U2A G15U to U2A G17U, the self-cleavage falls from 0.289 to 0.22.

Compared with U2A G25U, U2A G32U is lower in self-cleavage: 0.204 for the first, 0.155 for the second.

Compared with U2A G34U, U2A G40A is lower in self-cleavage: 0.665 for the first, 0.0928 for the second.

Going from U2A G40C to U2A G42C, the self-cleavage rises from 0.12 to 0.145.

Compared with U2A G42U, U2A G51A is higher in self-cleavage: 0.122 for the first, 0.233 for the second.

Compared with U2A G51C, U2A G56A is higher in self-cleavage: 0.125 for the first, 0.173 for the second.

First: U2A G56C
Second: U2A G57C
The self-cleavage of the first is higher: 0.0929 for the first, 0.0768 for the second.

Going from U2A G69C to U2A U5G, the self-cleavage rises from 0.111 to 0.166.

Going from U2A U7A to U2A U8A, the self-cleavage falls from 0.331 to 0.279.

Going from U2A U8C to U2A U8G, the self-cleavage rises from 0.162 to 0.201.

Compared with U2A U9A, U2A U14C is higher in self-cleavage: 0.201 for the first, 0.265 for the second.

First: U2A U20A
Second: U2A U20C
The self-cleavage of the first is lower: 0.198 for the first, 0.336 for the second.

First: U2A U52A
Second: U2A U52C
The self-cleavage of the first is higher: 0.285 for the first, 0.169 for the second.

Compared with U2A U53G, U2A U55G is lower in self-cleavage: 0.134 for the first, 0.109 for the second.

First: U2A U58A
Second: U2A U63A
The self-cleavage of the first is higher: 0.164 for the first, 0.0695 for the second.

Compared with U2A U63C, U2A U67A is lower in self-cleavage: 0.0787 for the first, 0.0652 for the second.

First: U2A U70C
Second: U2C A11C
The self-cleavage of the first is higher: 0.288 for the first, 0.229 for the second.

First: U2C A22G
Second: U2C A26U
The self-cleavage of the first is lower: 0.0938 for the first, 0.13 for the second.

Compared with U2C A28C, U2C A28G is lower in self-cleavage: 0.117 for the first, 0 for the second.

Going from U2C A30C to U2C A30U, the self-cleavage falls from 0.185 to 0.0598.

Compared with U2C A31C, U2C A35C is lower in self-cleavage: 0.226 for the first, 0.159 for the second.

First: U2C A39C
Second: U2C A39G
The self-cleavage of the first is lower: 0.0668 for the first, 0.0933 for the second.

Compared with U2C A41G, U2C A44U is higher in self-cleavage: 0.158 for the first, 0.201 for the second.

First: U2C A47G
Second: U2C A47U
The self-cleavage of the first is lower: 0 for the first, 0.203 for the second.

Compared with U2C A49C, U2C A49G is lower in self-cleavage: 0.189 for the first, 0.0598 for the second.

First: U2C A59C
Second: U2C A59G
The self-cleavage of the first is lower: 0.0741 for the first, 0.173 for the second.

Compared with U2C A61U, U2C A64C is higher in self-cleavage: 0.0427 for the first, 0.0771 for the second.

Compared with U2C A64U, U2C A71C is higher in self-cleavage: 0.107 for the first, 0.444 for the second.

Compared with U2C C3G, U2C C3U is lower in self-cleavage: 0.214 for the first, 0.131 for the second.

Compared with U2C C6A, U2C C6G is higher in self-cleavage: 0.0756 for the first, 0.0983 for the second.

Going from U2C C6U to U2C C12A, the self-cleavage falls from 0.245 to 0.205.

Going from U2C C12G to U2C C12U, the self-cleavage rises from 0.0835 to 0.226.

First: U2C C16G
Second: U2C C18U
The self-cleavage of the first is higher: 0.246 for the first, 0.162 for the second.

Compared with U2C C37G, U2C C38A is higher in self-cleavage: 0.0267 for the first, 0.0742 for the second.

Going from U2C C38U to U2C C46A, the self-cleavage rises from 0.147 to 0.232.

Compared with U2C C50A, U2C C50G is higher in self-cleavage: 0.0705 for the first, 0.144 for the second.

Compared with U2C C65G, U2C C65U is higher in self-cleavage: 0.0439 for the first, 0.162 for the second.

First: U2C C66U
Second: U2C G19A
The self-cleavage of the first is lower: 0.0916 for the first, 0.149 for the second.

Compared with U2C G19C, U2C G25C is lower in self-cleavage: 0.128 for the first, 0.118 for the second.

Going from U2C G27A to U2C G27U, the self-cleavage falls from 0.129 to 0.0539.

Going from U2C G34A to U2C G40A, the self-cleavage falls from 0.217 to 0.192.

Compared with U2C G40C, U2C G42U is higher in self-cleavage: 0.0737 for the first, 0.203 for the second.

Going from U2C G51A to U2C G51C, the self-cleavage rises from 0.219 to 0.506.

First: U2C G54U
Second: U2C G56A
The self-cleavage of the first is higher: 0.193 for the first, 0.177 for the second.

Compared with U2C G57U, U2C G68A is lower in self-cleavage: 0.131 for the first, 0.0299 for the second.

Going from U2C G68C to U2C G69A, the self-cleavage falls from 0.187 to 0.0698.

Going from U2C G69C to U2C U7C, the self-cleavage rises from 0.0747 to 0.246.

First: U2C U7G
Second: U2C U14A
The self-cleavage of the first is higher: 0.105 for the first, 0.0424 for the second.

Going from U2C U20C to U2C U33A, the self-cleavage falls from 0.273 to 0.0916.

Compared with U2C U58G, U2C U62A is lower in self-cleavage: 0.148 for the first, 0.0408 for the second.

Compared with U2C U67G, U2C U70A is higher in self-cleavage: 0.0822 for the first, 0.241 for the second.

Going from U2G A22U to U2G A28C, the self-cleavage rises from 0.259 to 0.384.

Compared with U2G A30C, U2G A30U is higher in self-cleavage: 0.108 for the first, 0.117 for the second.

Compared with U2G A41U, U2G A43G is lower in self-cleavage: 0.71 for the first, 0.21 for the second.

Compared with U2G A43U, U2G A44C is higher in self-cleavage: 0.102 for the first, 0.108 for the second.

Compared with U2G A47C, U2G A47G is lower in self-cleavage: 0.358 for the first, 0.0815 for the second.

Compared with U2G A49C, U2G A49G is higher in self-cleavage: 0.0246 for the first, 0.241 for the second.

Going from U2G A59G to U2G A61C, the self-cleavage falls from 0.225 to 0.109.

Going from U2G A61G to U2G A64C, the self-cleavage rises from 0.15 to 0.165.

First: U2G A64G
Second: U2G A71C
The self-cleavage of the first is lower: 0.159 for the first, 0.77 for the second.

Compared with U2G C3A, U2G C6A is lower in self-cleavage: 0.786 for the first, 0.196 for the second.

First: U2G C6G
Second: U2G C6U
The self-cleavage of the first is lower: 0.155 for the first, 0.303 for the second.

Compared with U2G C10G, U2G C10U is lower in self-cleavage: 0.287 for the first, 0.269 for the second.

Going from U2G C16G to U2G C16U, the self-cleavage rises from 0.267 to 0.478.

First: U2G C18A
Second: U2G C18G
The self-cleavage of the first is higher: 0.379 for the first, 0.373 for the second.

Going from U2G C37G to U2G C38A, the self-cleavage rises from 0.0975 to 0.143.

First: U2G C38G
Second: U2G C46U
The self-cleavage of the first is higher: 0.172 for the first, 0.11 for the second.

Compared with U2G C48A, U2G C48G is lower in self-cleavage: 0.213 for the first, 0.116 for the second.

First: U2G C65G
Second: U2G C66U
The self-cleavage of the first is lower: 0.0852 for the first, 0.163 for the second.

Going from U2G G13C to U2G G13U, the self-cleavage falls from 0.29 to 0.246.

Compared with U2G G15A, U2G G17A is lower in self-cleavage: 0.55 for the first, 0.529 for the second.

Going from U2G G17U to U2G G19A, the self-cleavage falls from 0.327 to 0.311.

First: U2G G21C
Second: U2G G21U
The self-cleavage of the first is higher: 0.364 for the first, 0.236 for the second.

Compared with U2G G25C, U2G G29C is lower in self-cleavage: 0.137 for the first, 0.122 for the second.

Compared with U2G G34A, U2G G42C is lower in self-cleavage: 0.37 for the first, 0.252 for the second.

U2G G51C showed a self-cleavage of 0.359.
